Patent US20180244758A1 (MAPP BIOPHARMACEUTICAL, published 2018)
Positions count from the first letter of the chain named.

How the values were obtained:
sGP = molecular target: T1, sGP (UniProt P60170 33-324); test: ELISA, GP antigen coated
T1 sequence: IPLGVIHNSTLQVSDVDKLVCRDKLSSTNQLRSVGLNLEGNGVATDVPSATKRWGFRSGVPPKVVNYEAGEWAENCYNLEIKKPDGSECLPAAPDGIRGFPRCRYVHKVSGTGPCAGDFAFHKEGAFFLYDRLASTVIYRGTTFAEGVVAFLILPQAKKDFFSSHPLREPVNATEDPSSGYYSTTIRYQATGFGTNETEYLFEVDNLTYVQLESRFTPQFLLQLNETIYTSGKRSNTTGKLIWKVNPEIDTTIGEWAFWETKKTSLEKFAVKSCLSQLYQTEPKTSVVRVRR

MARV GP = molecular target: T2, MARV GP (Marburg virus (MARV), UniProt P35253 19-637); test: ELISA, GP antigen coated
T2 sequence: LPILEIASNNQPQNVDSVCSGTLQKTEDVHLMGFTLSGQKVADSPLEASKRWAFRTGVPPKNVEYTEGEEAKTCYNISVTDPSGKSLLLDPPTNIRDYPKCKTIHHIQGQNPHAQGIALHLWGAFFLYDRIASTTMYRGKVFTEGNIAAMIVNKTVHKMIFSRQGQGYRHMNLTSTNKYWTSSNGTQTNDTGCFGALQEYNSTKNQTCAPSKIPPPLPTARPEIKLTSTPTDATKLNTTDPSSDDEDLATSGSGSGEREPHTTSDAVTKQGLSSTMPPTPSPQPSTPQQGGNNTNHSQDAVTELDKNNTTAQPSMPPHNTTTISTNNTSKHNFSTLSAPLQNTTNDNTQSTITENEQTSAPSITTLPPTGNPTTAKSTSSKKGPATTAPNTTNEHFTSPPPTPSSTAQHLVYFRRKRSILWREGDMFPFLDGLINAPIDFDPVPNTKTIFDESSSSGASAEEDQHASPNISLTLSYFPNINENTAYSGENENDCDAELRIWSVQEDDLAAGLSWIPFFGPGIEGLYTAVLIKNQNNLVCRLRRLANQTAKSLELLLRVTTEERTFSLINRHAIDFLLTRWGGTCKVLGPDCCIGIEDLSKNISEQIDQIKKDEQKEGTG

[1] = molecular target: T3, EBOV GP on rVSV particles (Ebola virus (EBOV), UniProt Q05320 33-676); test: cell-based or functional assay
T3 sequence: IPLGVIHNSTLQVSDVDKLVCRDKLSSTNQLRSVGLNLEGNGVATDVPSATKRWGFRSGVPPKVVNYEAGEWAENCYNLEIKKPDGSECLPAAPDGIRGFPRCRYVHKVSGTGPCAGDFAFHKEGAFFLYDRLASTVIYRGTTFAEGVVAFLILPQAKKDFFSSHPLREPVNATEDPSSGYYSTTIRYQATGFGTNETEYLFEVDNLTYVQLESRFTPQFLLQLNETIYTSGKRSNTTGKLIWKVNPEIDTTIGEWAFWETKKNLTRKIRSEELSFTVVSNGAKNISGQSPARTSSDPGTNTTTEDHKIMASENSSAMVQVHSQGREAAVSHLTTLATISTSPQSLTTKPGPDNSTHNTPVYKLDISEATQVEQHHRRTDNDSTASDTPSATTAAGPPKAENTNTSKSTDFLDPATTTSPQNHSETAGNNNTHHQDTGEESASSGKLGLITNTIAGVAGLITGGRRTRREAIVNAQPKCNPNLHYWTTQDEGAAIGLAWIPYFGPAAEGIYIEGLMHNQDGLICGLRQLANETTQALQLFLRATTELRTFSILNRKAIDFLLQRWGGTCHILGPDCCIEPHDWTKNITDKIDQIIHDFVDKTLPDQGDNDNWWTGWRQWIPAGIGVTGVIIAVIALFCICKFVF

[2] = molecular target: BDBV GP on rVSV particles (Bundibugyo virus (BDBV)); test: cell-based or functional assay
[3] = molecular target: T4, TAFV GP on VSV pseudotype particles (Tai Forest virus (TAFV), UniProt Q66810 33-676); test: cell-based or functional assay
T4 sequence: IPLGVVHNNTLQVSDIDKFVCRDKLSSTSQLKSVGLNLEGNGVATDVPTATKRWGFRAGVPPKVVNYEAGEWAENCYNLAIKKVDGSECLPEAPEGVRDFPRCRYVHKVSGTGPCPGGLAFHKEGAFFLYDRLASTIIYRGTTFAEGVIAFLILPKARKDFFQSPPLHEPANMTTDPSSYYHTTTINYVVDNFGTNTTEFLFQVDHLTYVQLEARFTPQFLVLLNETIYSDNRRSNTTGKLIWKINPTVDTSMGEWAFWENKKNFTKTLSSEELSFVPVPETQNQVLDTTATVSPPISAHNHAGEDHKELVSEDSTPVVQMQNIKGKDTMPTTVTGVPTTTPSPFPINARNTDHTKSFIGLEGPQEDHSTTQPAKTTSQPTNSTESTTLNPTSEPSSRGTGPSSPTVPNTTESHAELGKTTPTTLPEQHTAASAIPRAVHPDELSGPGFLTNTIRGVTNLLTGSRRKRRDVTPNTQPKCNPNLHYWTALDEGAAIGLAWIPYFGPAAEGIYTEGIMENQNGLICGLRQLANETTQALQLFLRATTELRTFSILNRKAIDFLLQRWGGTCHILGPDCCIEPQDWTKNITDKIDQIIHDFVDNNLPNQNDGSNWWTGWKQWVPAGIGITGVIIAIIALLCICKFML

[4] = molecular target: T5, SUDV GP on rVSV particles (Sudan virus (SUDV), UniProt Q66814 33-676); test: cell-based or functional assay
T5 sequence: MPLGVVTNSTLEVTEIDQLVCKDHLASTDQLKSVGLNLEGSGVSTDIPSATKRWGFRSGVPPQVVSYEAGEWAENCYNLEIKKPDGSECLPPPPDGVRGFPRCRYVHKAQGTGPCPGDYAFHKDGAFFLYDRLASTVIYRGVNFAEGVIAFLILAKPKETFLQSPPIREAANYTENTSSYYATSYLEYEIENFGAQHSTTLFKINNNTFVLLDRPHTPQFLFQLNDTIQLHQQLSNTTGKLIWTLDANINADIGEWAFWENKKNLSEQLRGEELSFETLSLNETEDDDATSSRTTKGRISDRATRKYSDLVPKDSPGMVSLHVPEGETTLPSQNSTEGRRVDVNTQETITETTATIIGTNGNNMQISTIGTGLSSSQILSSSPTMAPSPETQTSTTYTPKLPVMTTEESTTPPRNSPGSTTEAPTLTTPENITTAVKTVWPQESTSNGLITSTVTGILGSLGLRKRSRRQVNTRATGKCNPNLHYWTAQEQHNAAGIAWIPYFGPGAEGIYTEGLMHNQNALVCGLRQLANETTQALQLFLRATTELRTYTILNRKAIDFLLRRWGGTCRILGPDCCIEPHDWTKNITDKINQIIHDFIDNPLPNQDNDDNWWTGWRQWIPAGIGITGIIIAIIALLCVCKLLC

B1: mAb PE-16 (antibody, V domains shown)
VH: QVQLVQSGAEVTKPGASVKVSCKASGYTFTTYYMHWVRQAPGQGLEWVGIINPSGGITRYAQKFQGRVTLTRDTSTTTVYMELSSLRSEDTAVYYCARDRYPVLFATDYGMDVWGQGTTVTVSS
VL: DIVMTQSPATLSLSPGERATLSCRASQSVSGYLAWYQQKPGQAPRLLIYDASNRATGIPARFSGSGSGTDFTLTISSLEPEDFAVYYCQQRSIWPPGVTFGGGTKVEIK
sGP
  binding result: no binding (tested: 0.2 µg/ml)
MARV GP
  binding result: no binding (tested: 0.2 µg/ml)
[1]
  rVSV-GP neutralization IC50: 0.2 nM
[2]
  rVSV-GP neutralization IC50: 0.6 nM
[3]
  rVSV-GP neutralization IC50: 4.8 nM

B2: mAb PE-87 (antibody, V domains shown)
VH: QVQLVQSGVTLVQPGGSLRVSCAASGFTFSSYAMSWVRQAPGKGLEWVSAISGLGGSTYYADSVKGRFTISRDNSKNTLYLQMNSLRAEDTAVYYCAKDHRVWAAGYHFDYWGQGALVTVSS
VL: DIVLTQSPSTLSASVGDRVTITCRASQSISSWLAWYQQKPGEAPKLLISDASSLESGVPSRFSGSGSGTEFTLTISSLQPDDFATYYCQQYYSSPTFGGGTKVEIK
sGP
  binding result: no binding (tested: 0.2 µg/ml)
MARV GP
  binding result: no binding (tested: 0.2 µg/ml)
[1]
  rVSV-GP neutralization IC50: 0.5 nM
[4]
  rVSV-GP neutralization IC50: 0.3 nM
[2]
  rVSV-GP neutralization IC50: 0.5 nM
[3]
  rVSV-GP neutralization IC50: 1 nM

B3: mAb PE-24 (antibody, V domains shown)
VH: EVQLVESGGGLVQPGGSLRLSCAASGFTFSSYAMSWVRQAPGKGLEWVSEISGLGGSTYYADSAKGRFTISRDNSKSTLYLQMNSLRAEDTAVYYCAKDHRVWAPGYYFDHWGQGTLVTVSS
VL: B2 VL with E42K, S49Y, Y87F, Y92N, S93R
sGP
  binding result: no binding (tested: 0.2 µg/ml)
MARV GP
  binding result: no binding (tested: 0.2 µg/ml)
[1]
  rVSV-GP neutralization IC50: 2 nM
[4]
  rVSV-GP neutralization IC50: 0.5 nM
[2]
  rVSV-GP neutralization IC50: 1 nM
[3]
  rVSV-GP neutralization IC50: 1.5 nM

B4: mAb PE-47 (antibody, V domains shown)
VH: EVQLVESGGGLVKPGGSLRLSCAASGFTFSNAWMSWVRQAPGEGLEWVGRIKSKTDGGTIDYAAPVKGRFTISRDDSKNTVYLQMTSLKTEDTAVYYCTTYTEDMQYFDWLLRGGETFDYWGQGTLVTVSS
VL: DIQMTQSPSSLSASVGDRVTITCRASQYISTYLNWYQQKPGKAPKLLIYAAYNLQSGVPSRFSGSGSGTDFTLTISSLQPEDFATYYCQQSYSTPGRYTFGQGTKVEIK
sGP
  binding result: no binding (tested: 0.2 µg/ml)
MARV GP
  binding result: no binding (tested: 0.2 µg/ml)

B5: mAb PE-05 (antibody, V domains shown)
VH: QVQLQESGGGLVKPGRSLRLSCTASGFTFGDYAMSWFRQAPGKGLEWVGFLRSKAYGGTAEYAASVKGRFTMSRDDSKSIAYLQMNSLKTEDTAVYFCTRDGFRGSSWGYSYYGMDVWGQGTTVTVSS
VL: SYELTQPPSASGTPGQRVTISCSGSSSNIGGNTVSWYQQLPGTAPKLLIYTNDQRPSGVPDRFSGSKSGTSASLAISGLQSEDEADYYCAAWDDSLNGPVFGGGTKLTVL
MARV GP
  binding result: no binding (tested: 0.2 µg/ml)
[1]
  rVSV-GP neutralization IC50: 9 nM
[4]
  rVSV-GP neutralization IC50: 34 nM
[2]
  rVSV-GP neutralization IC50: 4 nM
[3]
  rVSV-GP neutralization IC50: 0.8 nM
